This is an account of results in the Human Domainome abundance scans (Beltran et al. 2025).

± gives the uncertainty stated by the source.

Sequences and labels used below:
B1: POU domain, class 3, transcription factor 1, residues 247 to 324; numbered along this chain, Q03052 (parent)
chain: EDAPSSDDLEQFAKQFKQRRIKLGFTQADVGLALGTLYGNVFSQTTICRFEALQLSFKNMCKLKPLLNKWLEETDSSS

The series covers variants of B1. Put plainly: abundance fitness (aPCA) (normalised: wild type 0, dead -1); higher = more abundant; growth selection in yeast, the domain comes from the species named. To be noted: Homo sapiens.
As to EDAPSSDYLEQFAKQFKQRRIKLGFTQADVGLALGTLYGNVFSQTTICRFEALQLSFKNMCKLKPLLNKWLEETDSSS [D8Y], the abundance fitness is -0.826 ± 0.43.

For EDAPSSDSLEQFAKQFKQRRIKLGFTQADVGLALGTLYGNVFSQTTICRFEALQLSFKNMCKLKPLLNKWLEETDSSS [D8S], the abundance fitness was -0.415 ± 0.099.

With EDAPSSDVLEQFAKQFKQRRIKLGFTQADVGLALGTLYGNVFSQTTICRFEALQLSFKNMCKLKPLLNKWLEETDSSS [D8V], the abundance fitness was -0.217 ± 0.069.

In the case of EDAPSSDRLEQFAKQFKQRRIKLGFTQADVGLALGTLYGNVFSQTTICRFEALQLSFKNMCKLKPLLNKWLEETDSSS [D8R], the abundance fitness was -0.179 ± 0.07.

As to EDAPSSDTLEQFAKQFKQRRIKLGFTQADVGLALGTLYGNVFSQTTICRFEALQLSFKNMCKLKPLLNKWLEETDSSS [D8T], the abundance fitness is -0.454 ± 0.18.

For the variant EDAPSSDDLKQFAKQFKQRRIKLGFTQADVGLALGTLYGNVFSQTTICRFEALQLSFKNMCKLKPLLNKWLEETDSSS [E10K], the abundance fitness is -0.301 ± 0.17.

As to EDAPSSDDLFQFAKQFKQRRIKLGFTQADVGLALGTLYGNVFSQTTICRFEALQLSFKNMCKLKPLLNKWLEETDSSS [E10F], the abundance fitness is -0.073 ± 0.11.

With EDAPSSDDLPQFAKQFKQRRIKLGFTQADVGLALGTLYGNVFSQTTICRFEALQLSFKNMCKLKPLLNKWLEETDSSS [E10P], the abundance fitness was -0.432 ± 0.15.

Consider EDAPSSDDLNQFAKQFKQRRIKLGFTQADVGLALGTLYGNVFSQTTICRFEALQLSFKNMCKLKPLLNKWLEETDSSS [E10N], for which the abundance fitness was -0.024 ± 0.13.

With EDAPSSDDLAQFAKQFKQRRIKLGFTQADVGLALGTLYGNVFSQTTICRFEALQLSFKNMCKLKPLLNKWLEETDSSS [E10A], the abundance fitness is -0.178 ± 0.072.

With EDAPSSDDLHQFAKQFKQRRIKLGFTQADVGLALGTLYGNVFSQTTICRFEALQLSFKNMCKLKPLLNKWLEETDSSS [E10H], the abundance fitness worked out at 0.243 ± 0.12.

As for EDAPSSDDLCQFAKQFKQRRIKLGFTQADVGLALGTLYGNVFSQTTICRFEALQLSFKNMCKLKPLLNKWLEETDSSS [E10C], the abundance fitness is -0.118 ± 0.098.

Regarding EDAPSSDDLGQFAKQFKQRRIKLGFTQADVGLALGTLYGNVFSQTTICRFEALQLSFKNMCKLKPLLNKWLEETDSSS [E10G], the abundance fitness is -0.361 ± 0.072.

EDAPSSDDLQQFAKQFKQRRIKLGFTQADVGLALGTLYGNVFSQTTICRFEALQLSFKNMCKLKPLLNKWLEETDSSS [E10Q]: the abundance fitness is -0.144 ± 0.15.

Take EDAPSSDDLMQFAKQFKQRRIKLGFTQADVGLALGTLYGNVFSQTTICRFEALQLSFKNMCKLKPLLNKWLEETDSSS [E10M]: the abundance fitness was -0.037 ± 0.08.

With EDAPSSDDLIQFAKQFKQRRIKLGFTQADVGLALGTLYGNVFSQTTICRFEALQLSFKNMCKLKPLLNKWLEETDSSS [E10I], the abundance fitness is -0.456 ± 0.27.

Regarding EDAPSSDDLRQFAKQFKQRRIKLGFTQADVGLALGTLYGNVFSQTTICRFEALQLSFKNMCKLKPLLNKWLEETDSSS [E10R], the abundance fitness was -0.107 ± 0.057.

EDAPSSDDLDQFAKQFKQRRIKLGFTQADVGLALGTLYGNVFSQTTICRFEALQLSFKNMCKLKPLLNKWLEETDSSS [E10D]: the abundance fitness is -0.136 ± 0.12.

Take EDAPSSDDGEQFAKQFKQRRIKLGFTQADVGLALGTLYGNVFSQTTICRFEALQLSFKNMCKLKPLLNKWLEETDSSS [L9G]: the abundance fitness was -0.651 ± 0.11.

Turning to EDAPSSDDPEQFAKQFKQRRIKLGFTQADVGLALGTLYGNVFSQTTICRFEALQLSFKNMCKLKPLLNKWLEETDSSS [L9P], the abundance fitness is -0.68 ± 0.24.

Take EDAPSSDDCEQFAKQFKQRRIKLGFTQADVGLALGTLYGNVFSQTTICRFEALQLSFKNMCKLKPLLNKWLEETDSSS [L9C]: the abundance fitness is -0.606 ± 0.24.

Take EDAPSSDDIEQFAKQFKQRRIKLGFTQADVGLALGTLYGNVFSQTTICRFEALQLSFKNMCKLKPLLNKWLEETDSSS [L9I]: the abundance fitness is -0.398 ± 0.21.

With EDAPSSDDKEQFAKQFKQRRIKLGFTQADVGLALGTLYGNVFSQTTICRFEALQLSFKNMCKLKPLLNKWLEETDSSS [L9K], the abundance fitness is -0.399 ± 0.21.

As for EDAPSSDDQEQFAKQFKQRRIKLGFTQADVGLALGTLYGNVFSQTTICRFEALQLSFKNMCKLKPLLNKWLEETDSSS [L9Q], the abundance fitness is -0.355 ± 0.1.

In the case of EDAPSSDDWEQFAKQFKQRRIKLGFTQADVGLALGTLYGNVFSQTTICRFEALQLSFKNMCKLKPLLNKWLEETDSSS [L9W], the abundance fitness is -0.365 ± 0.091.

Consider EDAPSSDDAEQFAKQFKQRRIKLGFTQADVGLALGTLYGNVFSQTTICRFEALQLSFKNMCKLKPLLNKWLEETDSSS [L9A], for which the abundance fitness was -0.532 ± 0.11.

Consider EDAPSSDDHEQFAKQFKQRRIKLGFTQADVGLALGTLYGNVFSQTTICRFEALQLSFKNMCKLKPLLNKWLEETDSSS [L9H], for which the abundance fitness was -0.645 ± 0.31.

For the variant EDAPSSDDMEQFAKQFKQRRIKLGFTQADVGLALGTLYGNVFSQTTICRFEALQLSFKNMCKLKPLLNKWLEETDSSS [L9M], the abundance fitness was -0.084 ± 0.11.

With EDAPSSDDVEQFAKQFKQRRIKLGFTQADVGLALGTLYGNVFSQTTICRFEALQLSFKNMCKLKPLLNKWLEETDSSS [L9V], the abundance fitness is -0.095 ± 0.058.

As to EDAPSSDDSEQFAKQFKQRRIKLGFTQADVGLALGTLYGNVFSQTTICRFEALQLSFKNMCKLKPLLNKWLEETDSSS [L9S], the abundance fitness was -0.833 ± 0.16.

EDAPSSDDEEQFAKQFKQRRIKLGFTQADVGLALGTLYGNVFSQTTICRFEALQLSFKNMCKLKPLLNKWLEETDSSS [L9E]: the abundance fitness was -0.54 ± 0.18.

Consider EDAPSSDDDEQFAKQFKQRRIKLGFTQADVGLALGTLYGNVFSQTTICRFEALQLSFKNMCKLKPLLNKWLEETDSSS [L9D], for which the abundance fitness was -0.678 ± 0.29.

Regarding EDAPSSDDTEQFAKQFKQRRIKLGFTQADVGLALGTLYGNVFSQTTICRFEALQLSFKNMCKLKPLLNKWLEETDSSS [L9T], the abundance fitness is -0.268 ± 0.11.

Turning to EDAPSSDDFEQFAKQFKQRRIKLGFTQADVGLALGTLYGNVFSQTTICRFEALQLSFKNMCKLKPLLNKWLEETDSSS [L9F], the abundance fitness was -0.098 ± 0.13.

EDAPSSDDREQFAKQFKQRRIKLGFTQADVGLALGTLYGNVFSQTTICRFEALQLSFKNMCKLKPLLNKWLEETDSSS [L9R]: the abundance fitness was -0.678 ± 0.1.
